Laboratory results published in US20080050387A1, “Non-Androgen Dependent Roles for Androgen Receptor and Non-Androgen Related Inhibitors of Androgen Receptor” (priority 2003, published 2008).
“Also recorded” adds a separate entry of the source.

Legend:
AR = AR protein level in H1299 cells (Western blot); format: cell-based, human; conditions: pSG5-AR and pKH3-ARA67 1 to 6
Method: Protein samples collected from the cells were separated on 8% SDS-PAGE and transferred to nitrocellulose membranes. Membranes were blocked with 5% nonfat milk in TBST buffer (150 mM NaCl, 10 mM Tris/pH8.0, and 0.5% Tween-20) at room temperature for 1 h. Then the membranes were immunoblotted with primary antibodies for 2 h at room temperature or overnight at 4° C., followed by incubation with secondary antibodies for 1 h at room temperature. Blots were developed with the AP color developing reagents (Bio-Rad).

ER = ER transactivation reporter gene assay in H1299 cells with ARA67; format: cell-based; conditions: 500 ng pSG5-ARA67, ERE-Luc, cognate ligand
Method: (§1) H1299 and COS-1 cells were maintained in Dulbecco's modified Eagle's medium (DMEM) (Life Technologies, Inc.) supplemented with 10% heat inactivated fetal bovine serum (FBS). LNCap cells were maintained in RPMI 1640 supplemented with […]. All media contain 100 units penicillin, 100 μg/ml streptomycin and 2 mM L-glutamine. Cells were seeded to a density of 50-60% confluency for transfection. In transfections where H1299 and COS-1 cells were used, the calcium phosphate precipitation method was used as described (Pan H J, et al. 1999. Endocrine 11:321-327) unless otherwise noted. […] In other reporter gene assays, where ligand treatment was required, cell culture media were changed to DMEM containing 10% charcoal-dextran-stripped FBS (CD-FBS) 2 h before transfection. After 16-18 h transfection, cells were treated with medium containing either vehicle or ligands for another 20-24 h and then cells were harvested. With LNCap cells transfection, the cells were treated with fresh RPMI 1640 containing 10% CD-FBS before transfection with SuperFect performed according to the manufacturer's protocol (Qiagen). After transfection, cells were allowed to recover in fresh RPMI 1640 containing 10% CD-FBS for 8-12 h, and then treated with either vehicle or ligands for another 20-24 h before harvesting. Each experiment was repeated at least three times.

microtubules = conditions: in the presence of Mg-ATP; cited from earlier work
AR nuclear translocation = molecular target: T1, AR nuclear translocation (Homo sapiens, UniProt P10275, DEL79-80/DUP473-473); assay: Subcellular distribution of AR in COS-1 cells (immunofluorescence staining, subcellular fractionation); format: cell-based
T1 construct: expressed in transfected cells; host or cells: COS-1
T1 sequence (P10275 with tags, fused parts or gaps DEL79-80/DUP473-473): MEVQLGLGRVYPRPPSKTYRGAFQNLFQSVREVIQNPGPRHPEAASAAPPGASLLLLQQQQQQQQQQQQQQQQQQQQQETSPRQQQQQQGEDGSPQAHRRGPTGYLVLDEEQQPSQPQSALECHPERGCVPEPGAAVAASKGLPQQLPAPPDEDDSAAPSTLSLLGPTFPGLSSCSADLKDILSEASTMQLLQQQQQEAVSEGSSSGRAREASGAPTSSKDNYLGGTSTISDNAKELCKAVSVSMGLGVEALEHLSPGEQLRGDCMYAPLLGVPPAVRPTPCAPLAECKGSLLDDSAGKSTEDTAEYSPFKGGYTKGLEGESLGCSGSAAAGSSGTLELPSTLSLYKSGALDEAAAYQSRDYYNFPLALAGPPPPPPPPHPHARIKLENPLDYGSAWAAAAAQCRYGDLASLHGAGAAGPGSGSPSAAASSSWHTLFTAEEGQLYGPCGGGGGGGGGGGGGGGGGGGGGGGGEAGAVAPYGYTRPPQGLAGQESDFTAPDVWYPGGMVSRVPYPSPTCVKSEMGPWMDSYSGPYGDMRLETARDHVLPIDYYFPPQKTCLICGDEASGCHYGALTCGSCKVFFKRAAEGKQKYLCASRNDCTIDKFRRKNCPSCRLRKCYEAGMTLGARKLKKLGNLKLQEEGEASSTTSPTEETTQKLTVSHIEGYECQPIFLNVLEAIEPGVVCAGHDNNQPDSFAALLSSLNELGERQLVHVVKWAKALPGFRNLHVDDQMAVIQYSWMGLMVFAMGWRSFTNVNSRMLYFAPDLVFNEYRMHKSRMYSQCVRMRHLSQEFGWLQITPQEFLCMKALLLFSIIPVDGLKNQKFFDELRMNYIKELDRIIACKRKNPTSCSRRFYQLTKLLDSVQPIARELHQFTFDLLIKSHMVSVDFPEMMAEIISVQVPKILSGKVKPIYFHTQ
Method: COS-1 cells were seeded on two-well Lab Tek Chamber slides (Nalge) in DMEM containing 10% CD-FBS 18 h before transfection. DNA was transfected by using FuGENE 6 Transfection Reagent (Boehringer Mannheim). After transfection, cells were treated with either 10 nM DHT or vehicle for 12 h. Then cells were fixed with fixation solution (3% paraformaldehyde and 10% sucrose in PBS) for 20 min on ice, followed by permeabilization with methanol for 10 min on ice. Slides were washed and blocked with 2% BSA in PBS for 15 min at room temperature. Then the cells were stained with 1 μg/ml rabbit polyclonal anti-AR antibody (NH27) and 1 μg/ml mouse monoclonal anti-His antibody (Santa Cruz Biotechnology) sequentially at room temperature for 1 h each. After each first Ab incubation, cells were washed and incubated with TexRed-conjugated goat anti-rabbit IgG and FITC-conjugated goat anti-mouse IgG (ICN), respectively. Stained slides were washed and mounted (Vectashield; Vector Laboratories). Fluorescence images were photographed under 400-fold magnification with a confocal microscope.
To prepare cytosolic and nuclear fractions of cells, cell monolayers were harvested with ice-cold PBS and pelleted. Cold buffer A (10 mM HEPES-KOH/pH 7.9 at 4° C., 1.5 mM MgCl2, 10 mM KCl, 0.5 mM dithiothreitol, 0.2 mM PMSF) equal to 5 times cell volume was used to resuspend the cells. […]

[1] = tested on: PSA expression in LNCaP cells; assay: DHT induced PSA expression in LNCaP cells transfected with ARA67 (Western blot); format: cell-based, human; conditions: pSG5-ARA67 transfected
Method: as §1, with “times. […]” for “times.”

AR level in nuclear fraction (AR nuclear translocation; Western blot, after DHT treatment): decreased | nuclear translocation of AR (AR nuclear translocation; immunofluorescence staining, DHT treatment): block the nuclear translocation
B1: ARA67: AR N-terminal interacting protein of 585 amino acids (SEQ ID NO:1), matches PAT1; functions as a repressor of AR (protein)
chain: MAAVELEWIPETLYNTAISAVVDNYIRSRRDIRSLPENIQFDVYYKLYQQGRLCQLGSEFCELEVFAKVLRALDKRHLLHHCFQALMDHGVKVASVLAYSFSRRCSYIAESDAAVKEKAIQVGFVLGGFLSDAGWYSDAEKVFLSCLQLCTLHDEMLHWFRAVECCVRLLHVRNGNCKYHLGEETFKLAQTYMDKLSKHGQQANKAALYGELCALLFAKSHYDEAYKWCIEAMKEITAGLPVKVVVDVLRQASKACVVKREFKKAEQLIKHAVYLARDHFGSKHPKYSDTLLDYGFYLLNVDNICQSVAIYQAALDIRQSVFGGKNIHVATAHEDLAYSSYVHQYSSGKFDNALFHAERAIGIITHILPEDHLLLASSKRVKALILEEIAIDCHNKETEQRLLQEAHDLHLSSLQLAKKAFGEFNVQTAKHYGNLGRLYQSMRKFKEAEEMHIKAIQIKEQLLGQEDYEVALSVGHLASLYNYDMNQYENAEKLYLRSIAIGKKLFGEGYSGLEYDYRGLIKLYNSIGNYEKVFEYHNVLSNWNRLRDRQYSVTDALEDVSTSPQSTEEVVQSFLISQNVEGPSC
AR protein level (AR): slightly increased | effect on ER transactivation (ER): nearly unaffected; also recorded: little effect | enhancement of microtubule binding (microtubules): 5-10 fold | DHT induced PSA expression [1]: decreased
